No end group written: not given here.
Key:
NgR = molecular target: T1, NgR (Homo sapiens, UniProt Q9BZR6); assay: AP fusion protein binding to NgR expressing COS-7 cells; conditions: for NgR Kd (nM) / Kd: AP fused Amino-Nogo fragments in conditioned media on NgR expressing COS-7 cells, 'No binding at' cells continue on the next line: AmNg A 150 nM, a.a. 1000-1018, a.a. 1005-1018, Amino of NgC 25 nM, a.a. 950-1004 50 nM, Amino of NgB 100 nM; for binding to NgR (COS-7 cells expressing NgR): qualitative
T1 construct: expressed in transfected cells; host or cells: COS-7
T1 sequence (Q9BZR6 27-447): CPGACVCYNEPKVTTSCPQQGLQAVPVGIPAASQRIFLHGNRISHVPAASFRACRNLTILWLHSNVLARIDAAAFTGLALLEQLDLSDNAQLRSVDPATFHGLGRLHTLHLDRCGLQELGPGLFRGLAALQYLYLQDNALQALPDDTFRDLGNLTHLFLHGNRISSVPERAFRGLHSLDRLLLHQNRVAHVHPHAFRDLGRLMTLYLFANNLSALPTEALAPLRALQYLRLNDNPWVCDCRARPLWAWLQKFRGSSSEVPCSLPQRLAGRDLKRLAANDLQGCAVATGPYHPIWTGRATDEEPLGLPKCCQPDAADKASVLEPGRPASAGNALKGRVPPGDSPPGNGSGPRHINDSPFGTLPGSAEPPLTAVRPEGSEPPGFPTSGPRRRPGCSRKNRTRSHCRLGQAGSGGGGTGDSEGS
Description: Several alkaline phosphatase (AP) fusion proteins containing various Nogo-A segments derived from regions between the amino terminus and the first hydrophobic segment were examined to identify the mechanism of Amino-Nogo-A action. To generate additional AP fusion proteins, human amino Nogo fragments were amplified and ligated to the pcAP6 vector digested with restriction enzymes EcoRI and XhoI as described (Fournier, A. E., et al., Nature 409:341-346 (2001)). Plasmids were then transfected into HEK293T cells and conditioned media were collected after 7 days. None of these fragments bind with high affinity to non-transfected COS-7 cells. […] This binding is saturable with a Kd indistinguishable from that for AP-Nogo-66 association with NgR (Table I). To better define the region responsible for Amino-Nogo interaction with NgR, a range of truncation mutants of Amino-Nogo were examined as AP fusion proteins. […] In fact, the NgR-interacting segment of Amino-Nogo is fully accounted for in the extreme carboxyl 24 amino acids (aa 995-1018, Amino-Nogo-A-24) (Table I and FIG. 1D). […] We named this domain (aa 995-1013) as Amino-Nogo-A-19.
Binding Kds for AP fused Amino-Nogo fragments were measured by applying conditioned media containing AP fusion protein to NgR expressing COS-7 cells. Bound AP was stained and measured.
It has been recognized that the Amino-Nogo-A protein inhibits non-neuronal cell spreading and axonal outgrowth when the protein is substrate bound (Chen, M. S., et al., Nature 403:434-439 (2000); Fournier, A. E., et al., Nature 409:341-346 (2001)). […] The later domain has been termed Δ20. To determine whether the NgR-interacting aa of Amino-Nogo-A described in Example 1 regulate cell spreading and axonal outgrowth, various fragments were expressed as GST fusion proteins and purified from E. coli. To generate GST fusion proteins, amino Nogo fragments were cloned in pGEX2T (Amersham Pharmacia). Native and soluble GST fusion proteins were expressed and purified as described (GrandPre, T., et al., Nature 403:439-444 (2000)). COS-7 binding assays were done as described (Fournier, A. E., et al., Nature 409:341-346 (2001)). Bound AP to COS-7 cells was measured using NIH image software. Fibroblast spreading and cDRG outgrowth assay were done as described (Fournier, A. E., et al., Nature 409:341-346 (2001)) with some modifications. Briefly, 50 μl of purified GST fusion protein or peptides diluted in PBS was pipetted into polylysine precoated 96 well plates (Becton Dickson Biocoat plates) and dried overnight at room temperature. For fibroblast spreading assay, subconfluent COS-7 cells were then plated for 1 hour in serum containing medium before fixation and staining with rho damine-phalloidin.

AP-Nogo66 = molecular target: T2, AP-Nogo66 (Homo sapiens, UniProt Q9NQC3); assay: Binding of AP-Nogo66 to COS-7 cells expressing NgR mutants; set-up: key: ++: WT level; +: weaker than wild type; trace binding; −: no binding; conditions: AP-Ng66 5 nM; level of binding compared to wild type NgR
T2 construct: made in house; NgR mutants: COS-7
T2 sequence (Q9NQC3 1055-1120 limits assumed): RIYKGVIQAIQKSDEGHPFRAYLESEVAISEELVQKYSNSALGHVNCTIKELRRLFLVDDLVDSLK
In short: (§1)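 COS-7 cells expressing Ala-substituted human NgR1 mutants incubated with AP-fused ligands at near-Kd levels (AP-Ng66 5 nM, AP-B4C66 0.5 nM, AP-Lingo-1 10 nM, AP-OMGP 10 nM). Bound AP stained and measured as % of wild-type NgR; graded ++/+/tr/−.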

AP-Lingo-1 = molecular target: T3, AP-Lingo-1 (Homo sapiens, UniProt Q96FE5); assay: Binding of AP-Lingo-1 to COS-7 cells expressing NgR mutants; set-up: key: ++: WT level; +: weaker than wild type; trace binding; −: no binding; conditions: AP-Lingo-1 10 nM; level of binding compared to wild type NgR
T3 construct: made in house; NgR mutants: COS-7
T3 sequence (Q96FE5 40-538 limits assumed): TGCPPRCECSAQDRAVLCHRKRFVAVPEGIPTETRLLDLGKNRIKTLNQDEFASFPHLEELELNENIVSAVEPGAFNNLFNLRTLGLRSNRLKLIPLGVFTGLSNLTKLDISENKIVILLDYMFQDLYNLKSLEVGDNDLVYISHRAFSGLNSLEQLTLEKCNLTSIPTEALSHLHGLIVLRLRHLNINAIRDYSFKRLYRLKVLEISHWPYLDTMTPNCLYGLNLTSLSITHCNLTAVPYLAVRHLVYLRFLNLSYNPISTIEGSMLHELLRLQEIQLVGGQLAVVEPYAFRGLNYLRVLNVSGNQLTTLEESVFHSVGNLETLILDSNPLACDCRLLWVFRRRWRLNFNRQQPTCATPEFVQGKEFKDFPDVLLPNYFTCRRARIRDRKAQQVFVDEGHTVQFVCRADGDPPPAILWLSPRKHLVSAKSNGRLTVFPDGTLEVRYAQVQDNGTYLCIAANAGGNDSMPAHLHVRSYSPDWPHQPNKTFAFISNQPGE
In short: as §1

AP-OMgp = assay: Binding of AP-OMgp to COS-7 cells expressing NgR mutants; set-up: key: ++: WT level; +: weaker than wild type; trace binding; −: no binding; conditions: AP-OMGP 10 nM; level of binding compared to wild type NgR
In short: as §1

AP-MAG = assay: Binding of AP-MAG to COS-7 cells expressing NgR mutants; set-up: key: ++: WT level; +: weaker than wild type; trace binding; −: no binding; conditions: AP-MAG 30 nM; level of binding compared to wild type NgR
AP-B4C = molecular target: T4, AP-B4C (Homo sapiens, UniProt Q9NQC3); assay: Binding of AP-B4C to COS-7 cells expressing NgR mutants; set-up: key: ++: WT level; +: weaker than wild type; trace binding; −: no binding; conditions: AP-B4C 10 nM; level of binding compared to wild type NgR
T4 construct: a.a; 950-1018 (AmNg B4C); made in house; host or cells: AP ligand: HEK293T conditioned medium; NgR mutants: COS-7
T4 sequence (Q9NQC3 950-1018): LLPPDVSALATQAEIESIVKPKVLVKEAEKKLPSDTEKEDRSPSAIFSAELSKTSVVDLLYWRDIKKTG

AP-B4C66 = assay: Binding of AP-B4C66 to COS-7 cells expressing NgR mutants; set-up: key: ++: WT level; +: weaker than wild type; trace binding; −: no binding; conditions: AP-B4C66 0.5 nM; level of binding compared to wild type NgR
In short: as §1

NgR ligands = assay: Binding of alanine substituted NgR mutants to NgR ligands, summary categories; conditions: AP-Nogo66, AP-B4C, AP-B4C66, AP-Lingo-1, AP-OMgp and AP-MAG; compared to wild type NgR
In short: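 AP-fused ligands (Nogo66, B4C, B4C66, Lingo-1, OMgp, MAG) were assayed against 74 Ala-substitution mutants of human NgR1 targeting surface charged patches, glycosylation sites and predicted binding regions, plus the D259N variant. Outcomes were grouped into categories: binding lost for all ligands, retained for all, or ligand-selective.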

LSKTSVVDLLYWRDIKKTG (also: alkaline phosphatase fusion; UniProt Q9NQC3 1000-1018, looked up, fragment) [a.a. 1000-1018, AP fusion protein of Nogo-A aa 1000-1018]
NgR Kd (nM) (NgR): No binding

MDGQKKNWKDKVVDLLYWRDIKKTG (not fully specified) [Amino of NgC, AP fusion protein of Amino-Nogo residues of Nogo-C]
NgR Kd (nM) (NgR): No binding | binding to NgR (COS-7 cells expressing NgR) (NgR): fail to associate with NgR-expressing cells

............IFSAELSKTS (LLPPDVSALATQAEIESIVKPKVLVKEAEKKLPSDTEKEDRSPSAIFSAELSKTS; also: alkaline phosphatase fusion; UniProt Q9NQC3 950-1004, looked up, fragment) [a.a. 950-1004, AP fusion protein of aa from the Nogo-A-specific region alone]
NgR Kd (nM) (NgR): No binding | binding to NgR (COS-7 cells expressing NgR) (NgR): do not bind to NgR

VVDLLYWRDIKKTG (also: alkaline phosphatase fusion; UniProt Q9NQC3 1005-1018, looked up, fragment) [a.a. 1005-1018, AP fusion protein of Nogo-A aa 1005-1018]
NgR Kd (nM) (NgR): No binding

IFSAELSKTSVVDLLYWRDIK [a.a. 995-1015]
Kd (NgR): 4.55 ± 3.66 nM

B1: a.a. 622-1018 (AmNg B): AP fusion protein of the carboxyl half of Amino-Nogo (fragment B), aa 622-1018 (protein)
chain: SAVPSAGASVIQPSSSPLEASSVNYESIKHEPENPPPYEEAMSVSLKKVSGIKEEIKEPENINAALQETEAPYISIACDLIKETKLSAEPAPDFSDYSEMAKVEQPVPDHSELVEDSSPDSEPVDLFSDDSIPDVPQKQDETVMLVKESLTETSFESMIEYENKEKLSALPPEGGKPYLESFKLSLDNTKDTLLPDEVSTLSKKEKIPLQMEELSTAVYSNDDLFISKEAQIRETETFSDSSPIEIIDEFPTLISSKTDSFSKLAREYTDLEVSHKSEIANAPDGAGSLPCTELPHDLSLKNIQPKVEEKISFSDDFSKNGSATSKVLLLPPDVSALATQAEIESIVKPKVLVKEAEKKLPSDTEKEDRSPSAIFSAELSKTSVVDLLYWRDIKKTG
modifications: left off: large carriers
Kd (NgR): 6.66 ± 1.49 nM | binding to NgR (COS-7 cells expressing NgR) (NgR): high affinity binding

B2: 95, 97: human NgR1 mutant, listed residues mutated to alanine (protein)
chain: CPGACVCYNEPKVTTSCPQQGLQAVPVGIPAASQRIFLHGNRISHVPAASFRACRNLTILWLHSNVLAAIAAAAFTGLALLEQLDLSDNAQLRSVDPATFHGLGRLHTLHLDRCGLQELGPGLFRGLAALQYLYLQDNALQALPDDTFRDLGNLTHLFLHGNRISSVPERAFRGLHSLDRLLLHQNRVAHVHPHAFRDLGRLMTLYLFANNLSALPTEALAPLRALQYLRLNDNPWVCDCRARPLWAWLQKFRGSSSEVPCSLPQRLAGRDLKRLAANDLQGCAVATGPYHPIWTGRATDEEPLGLPKCCQPDAADKASVLEPGRPASAGNALKGRVPPGDSPPGNGSGPRHINDSPFGTLPGSAEPPLTAVRPEGSEPPGFPTSGPRRRPGCSRKNRTRSHCRLGQAGSGGGGTGDSEGSGALPSLTCSLTPLGLALVLWTVLGPC
Ng66 (AP-Nogo66): + | Lingo-1 (AP-Lingo-1): + | OMgp (AP-OMgp): tr | MAG (AP-MAG): tr | B4C (AP-B4C): ++ | B4C-66 (AP-B4C66): + | ligand binding category of NgR mutant (Table II) (NgR ligands): Differential binding

B3: 108, 131: human NgR1 mutant, listed residues mutated to alanine (protein)
chain: CPGACVCYNEPKVTTSCPQQGLQAVPVGIPAASQRIFLHGNRISHVPAASFRACRNLTILWLHSNVLARIDAAAFTGLALLAQLDLSDNAQLRSVDPATFHGLGALHTLHLDRCGLQELGPGLFRGLAALQYLYLQDNALQALPDDTFRDLGNLTHLFLHGNRISSVPERAFRGLHSLDRLLLHQNRVAHVHPHAFRDLGRLMTLYLFANNLSALPTEALAPLRALQYLRLNDNPWVCDCRARPLWAWLQKFRGSSSEVPCSLPQRLAGRDLKRLAANDLQGCAVATGPYHPIWTGRATDEEPLGLPKCCQPDAADKASVLEPGRPASAGNALKGRVPPGDSPPGNGSGPRHINDSPFGTLPGSAEPPLTAVRPEGSEPPGFPTSGPRRRPGCSRKNRTRSHCRLGQAGSGGGGTGDSEGSGALPSLTCSLTPLGLALVLWTVLGPC
Ng66 (AP-Nogo66): + | Lingo-1 (AP-Lingo-1): − | OMgp (AP-OMgp): + | MAG (AP-MAG): tr | B4C (AP-B4C): + | B4C-66 (AP-B4C66): + | ligand binding category of NgR mutant (Table II) (NgR ligands): Differential binding
